Blank lines part the entries; values can stand above or below the molecule they belong to.
Experiments:
[1] = molecular target: Scytonema hofmannii TnsB transposase (type V-K CRISPR-associated transposon) (Scytonema hofmannii (UTEX 2349)); experiment: cryo-EM structure; 40 uM shTnsB with 10 uM STC DNA in 50 mM HEPES pH 7.5, 300 mM NaCl, 5 mM MgCl2, 1 mM TCEP, 30 min at 37 C; post-catalytic strand-transfer complex, 2.46 A
[2] = molecular target: Scytonema hofmannii TnsB transposase (type V-K CRISPR-associated transposon) (Scytonema hofmannii (UTEX 2349)); experiment: SEC-MALS; shTnsB mixed with the reconstituted strand-transfer complex (STC) DNA; the high MW peak at 358.7 kDa holds the STC DNA and shTnsB
shTnsB [3] = molecular target: T1, shTnsB (Scytonema hofmannii UTEX 2349, UniProt PDB:8AA5_1 1-596); experiment: EMSA; 5 mM MgCl2; four bands, three sites expected; 50 mM HEPES pH 7.5, 300 mM NaCl, 5 mM MgCl2, 1 mM TCEP, 37 °C, 30 min; 6% DNA retardation gel; conditions: protein: recombinant; tags: C-terminal His6 (TEV treatment, tag removed); chain copies: 4; blunt
T1 sequence: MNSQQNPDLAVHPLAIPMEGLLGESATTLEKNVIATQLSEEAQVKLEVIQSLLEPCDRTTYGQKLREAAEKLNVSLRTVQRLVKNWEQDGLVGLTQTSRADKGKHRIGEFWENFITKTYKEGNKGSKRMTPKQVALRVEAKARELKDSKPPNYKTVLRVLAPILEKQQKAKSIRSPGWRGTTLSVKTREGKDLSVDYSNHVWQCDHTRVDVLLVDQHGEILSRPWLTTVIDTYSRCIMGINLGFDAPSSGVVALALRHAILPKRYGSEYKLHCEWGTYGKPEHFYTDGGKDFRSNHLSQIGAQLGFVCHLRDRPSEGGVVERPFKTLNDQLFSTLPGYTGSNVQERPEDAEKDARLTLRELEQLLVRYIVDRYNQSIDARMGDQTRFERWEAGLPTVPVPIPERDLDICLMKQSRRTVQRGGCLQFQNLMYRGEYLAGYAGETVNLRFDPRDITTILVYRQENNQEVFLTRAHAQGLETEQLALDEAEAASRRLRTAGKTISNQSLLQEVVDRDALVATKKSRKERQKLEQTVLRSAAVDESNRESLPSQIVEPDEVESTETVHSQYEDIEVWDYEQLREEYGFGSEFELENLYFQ

shTnsB [4] = molecular target: T1, shTnsB; experiment: cryo-EM structure (2.4 Å); 5 mM MgCl2; TnsB tetramer; 50 mM HEPES pH 7.5, 300 mM NaCl, 5 mM MgCl2, 1 mM TCEP, 37 °C, 30 min; 6% DNA retardation gel; conditions: protein: recombinant; tags: C-terminal His6 (TEV treatment, tag removed); chain copies: 4; six strands: 1:2 1:3 (RE arm), 4:5 4:6 (LE arm); the arms pair through the 5 nt target between the insertion sites (1:4); 5' polyA overhangs on strands 2 and 5

- stoichiometry N [1]: 4
- stoichiometry N [2]: 4
Molecule: Scytonema hofmannii TnsB transposase (type V-K CRISPR-associated transposon) (enzyme)

B1: LE (dsDNA)
DNA 1: ATTATATTGATGACATTTAATTTGTCATCAATTAATTAAGCAACGCTGATGGGTCACGACGACAATTAAATAGTCACAATGACATTAATCTGTCACCGACGACAGATAATTTGTCACTGTACACTACGCCTTTTGTGG
DNA 2: CCACAAAAGGCGTAGTGTACAGTGACAAATTATCTGTCGTCGGTGACAGATTAATGTCATTGTGACTATTTAATTGTCGTCGTGACCCATCAGCGTTGCTTAATTAATTGATGACAAATTAAATGTCATCAATATAAT
- binding result (shTnsB [3]): binds

B2: STC DNA (RE_Target, RE_polyA, Target_1, LE_Target, LE_polyA, Target_2) (structured_DNA)
DNA 1: ATAAGGATTTTACTGATGACAATAATTTGTCACAACGACATATAATTAGTCACTGTACACGTAGAGACGTAGCAATGCT
DNA 2: AAAAAAAAAAAAAAATGTACAGTGACTAATTATATGTCGTTGTGACAAATTATTGTCATCAGTAAAATCCTTAT
DNA 3: AGCATTGCTACGTCT
DNA 4: AATTAAATAGTCACAATGACATTAATCTGTCACCGACGACAGATAATTTGTCACTGTACACTACGCCTTTTGTGGAGATG
DNA 5: AAAAAAAAAAAAAAATGTACAGTGACAAATTATCTGTCGTCGGTGACAGATTAATGTCATTGTGACTATTTAATT
DNA 6: CATCTCCACAAAAGG
- binding result (shTnsB [4]): binds

— article PMC9527255, “Structure of the TnsB transposase-DNA complex of type V-K CRISPR-associated transposon”
